Source: patent publication US20240279618A1, “RECEPTOR TYROSINE KINASE AGONIST, COMPOSITION FOR CELL CULTURE MEDIUM, AND […] MAINTENANCE COMPOSITION” (SEKISUI CHEMICAL CO., LTD., priority 2021, published 2024)

Columns and labels:
FGFR4-Fc = molecular target: T1, FGFR4-Fc (Homo sapiens, UniProt P22455); experiment: SPR affinity of VHH (monomer) for FGFR4-Fc; format: binding; settings: same manner as Example 5
T1 construct: Fc
T1 sequence (P22455 22-369 limits assumed): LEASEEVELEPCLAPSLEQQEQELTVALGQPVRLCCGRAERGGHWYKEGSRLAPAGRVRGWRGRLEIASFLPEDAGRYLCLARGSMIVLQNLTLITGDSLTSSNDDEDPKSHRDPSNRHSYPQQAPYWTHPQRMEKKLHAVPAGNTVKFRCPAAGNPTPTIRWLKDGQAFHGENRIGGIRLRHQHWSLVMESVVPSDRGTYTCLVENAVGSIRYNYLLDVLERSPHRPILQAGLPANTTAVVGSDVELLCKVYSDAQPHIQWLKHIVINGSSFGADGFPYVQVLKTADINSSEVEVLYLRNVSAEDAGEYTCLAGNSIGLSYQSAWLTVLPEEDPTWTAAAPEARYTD
Protocol: (§1) The binding activity of VHH Clone #1 or VHH Clone #2 immobilized on Series S Sensor Chip CAP (manufactured by Cytiva) with respect to FGFR1-Fc was measured using Biacore (registered trademark) T200 (manufactured by Cytiva). Measurement was performed by CAP Single-cycle Kinetics. The temperature was set to 25° C. As a running buffer, 10 mM HEPES (pH 7.4) (Cytiva) including HBS-EP+(150 mM NaCl, 0.5 mM EDTA, and 0.05% surfactant P20) was used. The measurement order for each run is as follows.
(§2) 2) Measurement of binding activity: The flow rate was set to 30 μL/mL, and VHH Clone #1 or VHH Clone #2 each diluted to 1.85 nM, 5.56 nM, 16.67 nM, or 50 nM, using a running buffer, was allowed to have an association time set to 120 seconds for binding and a dissociation time set to 600 seconds for interaction.
(§3) 3) Regeneration of sensor chip surface: The flow rate was set to 10 μL/mL, a solution in which Reaneration stock 1 and Regeneration stock 2 (manufactured by Cytiva) were mixed at the ratio of 3:1 was added thereto for 120 seconds to extract the immobilized VHH. Next, analysis was performed with a 1:1 binding model using Biacore T200 Evaluation (software version 2.0, manufactured by Cytiva), and the binding activity was calculated.
(§4) The binding activity of VHH Clone #1 to FGFR2-Fc, FGFR3-Fc, or FGFR4-Fc was measured in the same manner as in Example 5.

FGFR1-DIIDIII = experiment: Binding activity by biolayer interference (BLI) to FGFR1-DIIDIII; set-up: species or system human; settings: 1:1 binding model
FGFR1-DIIDIII, sequence (P11362 158-357 limits assumed): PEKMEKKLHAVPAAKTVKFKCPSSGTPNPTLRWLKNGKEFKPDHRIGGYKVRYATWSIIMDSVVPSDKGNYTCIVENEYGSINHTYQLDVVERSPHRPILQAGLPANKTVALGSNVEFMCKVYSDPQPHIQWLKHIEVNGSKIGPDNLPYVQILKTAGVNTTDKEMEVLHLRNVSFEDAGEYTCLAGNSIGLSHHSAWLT
Protocol: The FGFR1 extracellular domain has DII and DIII domains. Each of an FGFR1 extracellular domains (hereinafter may be abbreviated as “FGFR1-DIIDIII”, “FGFR1-DII”, or “FGFR1-DIII”) was expressed using AAVpro293T cells as follows, these domains were purified, and an affinity measurement test with VHH Clone #1 was performed by a biolayer interference (BLI) method.
The binding activities of FGFR1-DIIDIII, FGFR1-DII, and FGFR1-DIII to VHH Clone #1 were measured by a biolayer interference method (hereinafter sometimes abbreviated as “BLI”). In BLI, using Octet 384 (manufactured by Fortebio), VHH Clone #1 diluted with a kinetics buffer (0.05% Tween20-containing PBS, pH 7.4) was immobilized on an Anti-Penta-HIS (HIS1K, manufactured by Fortebio) sensor chip, and bound to FGFR1-DIIDIII, FGFR1-DII, and FGFR1-DIII, which had been adjusted from 100 nM in 2-fold serial dilutions, and the dissociation rate was measured.
In the preparation for measurement, a tip of the sensor chip was immersed in 200 μL of the kinetics buffer for 10 minutes in order to hydrate the sensor chip. […]
After completion of the measurements, the measured value of a Reference (only the kinetics buffer) was subtracted from the actual measurement value, and Global Fitting was performed using a 1:1 binding model using Octet software to calculate the binding activity (FIG. 22).

FGFR3-Fc = experiment: SPR affinity of VHH (monomer) for FGFR3-Fc; format: binding, human; settings: same manner as Example 5
Protocol: as §1, §2, §3, §4

FGFR2-Fc = experiment: SPR affinity of VHH (monomer) for FGFR2-Fc; format: binding, human; settings: same manner as Example 5
Protocol: as §1, §2, §3, §4

[1] = system: phospho-p44/42 MAPK (Erk½); experiment: Agonist activity by Western blotting in NIH3T3 cells; format: cell-based, mouse; settings: VHH 100 nM, 30 minutes
Protocol: In order to verify the agonist activity for VHH-C(represented by #1_C in the drawing), #1-L4-#1, and #1_Fc, which were obtained in Examples above, the measurement was performed as described below using Western blotting for a change in expression level of Phospho-p44/42 MAPK (Erk½). Furthermore, a basic fibroblast growth factor (bFGF; manufactured by Fujifilm Wako Pure Chemical Corporation) was used as a positive control.
As NIH3T3, those described in Example 7 were used. NIH3T3 cells were seeded on a 6-well plate for cell culture at 2× 10^5 cells/well, and culture was performed overnight (37° C., in a 5% CO2 incubator, with light shielded). After washing with a serum-free medium, bFGF (final concentration: 10 ng/mL) or VHH (final concentration: 100 nM) diluted with the serum-free medium was added thereto, and normal culture was performed for 30 minutes. Thereafter, the well was washed with ice-cooled PBS, and the cells were peeled off with a cell scraper, transferred to a tube, and centrifuged at 300×g for 5 minutes at 4° C. to recover the cells. Thereafter, the cells were solubilized with a phosphatase inhibitor-containing RIPA buffer and left to stand on ice for 30 minutes. After the solubilization reaction, centrifugation was performed at 12,000×g for 15 minutes at 4° C. to recover the supernatant. […]

Molecule	ka (FGFR4-Fc)	kd (FGFR4-Fc)	Koff (FGFR1-DIIDIII)	Kon (FGFR1-DIIDIII)	ka (FGFR3-Fc)	kd (FGFR3-Fc)	ka (FGFR2-Fc)	kd (FGFR2-Fc)	agonist activity (expression of phosphorylated p44/42 MAPK (Erk½)) [1]
VHH Clone #1: alpaca-derived VHH single-domain antibody (monomer) binding FGFR1, amino acid sequence SEQ ID NO: 17 (protein, VHH_Clone_#1) VHH: QLQLVESGGGSVQAGGSLRLSCAASRSLSRFNVWTWYRQAPVKQRELVASITKSGDTNYAESVKGRFIISRDDDKNTVYLQMNNLKSEDTGIYYCAGSYYSGSYLYPSPGGFSVWGQGTQVTVSS	2.37e+06 M⁻¹ s⁻¹	0.0527 s⁻¹	0.000141 s⁻¹	289000 M/s	232000 M⁻¹ s⁻¹	0.235 s⁻¹	484000 M⁻¹ s⁻¹	0.776 s⁻¹	
#1-L4-#1: dimer of VHH #1 with linker L4 (GSEGKSSGSGSESKST), SEQ ID NO: 23 (protein, #1-L4-#1) VHH: QLQLVESGGGSVQAGGSLRLSCAASRSLSRFNVWTWYRQAPVKQRELVASITKSGDTNYAESVKGRFIISRDDDKNTVYLQMNNLKSEDTGIYYCAGSYYSGSYLYPSPGGFSVWGQGTQVTVSSGSEGKSSGSGSESKSTQLQLVESGGGSVQAGGSLRLSCAASRSLSRFNVWTWYRQAPVKQRELVASITKSGDTNYAESVKGRFIISRDDDKNTVYLQMNNLKSEDTGIYYCAGSYYSGSYLYPSPGGFSVWGQGTQVTVSS									exhibit an agonist activity
